Test results published in patent publication US20180057589A1 (Genentech, published 2018).

What was measured:
[1] = biological target: T1, FLAG-Human-Notch2-NRR-6xHis (human, UniProt Q04721 1306-1676); experiment: SPR (BIAcore-3000), IgG captured by anti-human IgG, Notch2 NRR injected; human Notch2 NRR antigen
T1 construct: Whole tagged antigen construct; also called NRR2; hNotch2 NRR
T1 sequence: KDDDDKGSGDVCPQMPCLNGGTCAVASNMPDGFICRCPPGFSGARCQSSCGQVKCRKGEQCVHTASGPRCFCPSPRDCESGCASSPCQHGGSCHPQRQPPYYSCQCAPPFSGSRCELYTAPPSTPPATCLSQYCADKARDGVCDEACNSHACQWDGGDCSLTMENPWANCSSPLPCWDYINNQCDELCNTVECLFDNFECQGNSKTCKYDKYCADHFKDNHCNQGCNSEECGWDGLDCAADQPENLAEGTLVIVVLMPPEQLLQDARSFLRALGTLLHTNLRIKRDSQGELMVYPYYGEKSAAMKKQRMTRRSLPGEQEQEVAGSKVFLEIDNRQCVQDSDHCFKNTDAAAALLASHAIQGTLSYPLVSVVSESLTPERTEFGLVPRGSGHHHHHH
Procedure: (§1) For kinetics measurements, two-fold serial dilutions of human and mouse Notch2 NRR (3.9 nM to 500 nM) were injected in PBT buffer (PBS with 0.05% Tween 20) at 25° C. with a flow rate of 30 μl/min. Association rates (kₒₙ) and dissociation rates (koff) were calculated using a simple one-to-one Langmuir binding model (BIAcore Evaluation Software version 3.2). The equilibrium dissociation constant (KD) was calculated as the ratio koff/kₒₙ.

[2] = biological target: T1, FLAG-Human-Notch2-NRR-6xHis; experiment: ELISA, lower panel: Flag-tagged NRR protein captured by anti-Flag antibody, titration of α-NRR2, AP-conjugated anti-human secondary antibody, A560
From the text: (§2) Anti-Flag antibody was used to capture Flag-Tagged NRR protein from all four Notch receptors in a black walled, high binding plate (Greiner). NRR antibody and E25 control antibodies were bound to the NRR proteins and washed away with PBS. An Alkaline Phosphate conjugated anti-human (H+L) secondary antibody (Jackson ImmunoResearch) was used to detect bound anti-NRR and E25. Unbound secondary was washed away and AP was detected with PNPP substrate (Pierce).

mouse Notch1 NRR protein = biological target: T2, mouse Notch1 NRR protein (mouse, UniProt Q01705 1446-1723); experiment: ELISA, lower panel: Flag-tagged NRR protein captured by anti-Flag antibody, titration of α-NRR2, A560
T2 construct: Purified NRR fragment (Flag-tagged in the ELISA); also called mNotch1 NRR
T2 sequence: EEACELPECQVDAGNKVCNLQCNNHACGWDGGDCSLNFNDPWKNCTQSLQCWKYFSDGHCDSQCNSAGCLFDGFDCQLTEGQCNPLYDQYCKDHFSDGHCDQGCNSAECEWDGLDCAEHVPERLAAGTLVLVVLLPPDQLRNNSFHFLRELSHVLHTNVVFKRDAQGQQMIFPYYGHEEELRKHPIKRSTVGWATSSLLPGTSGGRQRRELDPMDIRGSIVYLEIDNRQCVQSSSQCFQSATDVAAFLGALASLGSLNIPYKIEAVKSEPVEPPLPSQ
From the text: as §2

human Notch3-NRR protein = biological target: T3, human Notch3-NRR protein (human, UniProt Q9UM47 1384-1641, limits assumed); experiment: as above
T3 construct: domain: NRR; also called hNotch3 NRR
T3 sequence (looked up): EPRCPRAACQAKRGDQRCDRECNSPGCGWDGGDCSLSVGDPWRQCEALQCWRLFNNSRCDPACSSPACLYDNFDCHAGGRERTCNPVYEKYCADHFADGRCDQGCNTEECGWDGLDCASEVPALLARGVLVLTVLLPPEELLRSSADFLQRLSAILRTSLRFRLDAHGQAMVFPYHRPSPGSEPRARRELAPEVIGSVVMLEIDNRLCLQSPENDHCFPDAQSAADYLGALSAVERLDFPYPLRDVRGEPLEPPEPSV
From the text: as §2

human Notch1 NRR protein = biological target: T4, human Notch1 NRR protein (human, UniProt P46531 1446-1733); experiment: as above
T4 construct: Purified NRR fragment (Flag-tagged in the ELISA); also called NRR1; hNotch1 NRR
T4 sequence: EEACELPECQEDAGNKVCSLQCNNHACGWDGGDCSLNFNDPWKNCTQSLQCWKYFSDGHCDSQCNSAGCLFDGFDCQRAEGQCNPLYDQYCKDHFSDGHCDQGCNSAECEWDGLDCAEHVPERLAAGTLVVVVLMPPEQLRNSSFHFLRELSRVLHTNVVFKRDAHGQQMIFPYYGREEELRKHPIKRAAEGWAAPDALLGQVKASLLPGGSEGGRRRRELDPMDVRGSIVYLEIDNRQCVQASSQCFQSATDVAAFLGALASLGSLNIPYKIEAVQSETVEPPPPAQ
From the text: as §2

mouse Notch3-NRR protein = biological target: T5, mouse Notch3-NRR protein (mouse, UniProt Q61982 1385-1641, limits assumed); experiment: as above
T5 construct: domain: NRR; also called mNotch3 NRR
T5 sequence (looked up): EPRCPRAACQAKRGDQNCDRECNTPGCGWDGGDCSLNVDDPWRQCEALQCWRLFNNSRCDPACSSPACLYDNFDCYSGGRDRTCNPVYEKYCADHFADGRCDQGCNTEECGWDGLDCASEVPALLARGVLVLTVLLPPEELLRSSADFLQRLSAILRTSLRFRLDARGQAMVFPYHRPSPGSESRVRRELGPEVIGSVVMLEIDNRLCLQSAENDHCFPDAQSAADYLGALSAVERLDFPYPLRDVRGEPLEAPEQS
From the text: as §2

mouse Notch4-NRR protein = biological target: T6, mouse Notch4-NRR protein (mouse, UniProt P31695 1168-1441, limits assumed); experiment: as above
T6 construct: domain: NRR; also called mNotch4 NRR
T6 sequence (looked up): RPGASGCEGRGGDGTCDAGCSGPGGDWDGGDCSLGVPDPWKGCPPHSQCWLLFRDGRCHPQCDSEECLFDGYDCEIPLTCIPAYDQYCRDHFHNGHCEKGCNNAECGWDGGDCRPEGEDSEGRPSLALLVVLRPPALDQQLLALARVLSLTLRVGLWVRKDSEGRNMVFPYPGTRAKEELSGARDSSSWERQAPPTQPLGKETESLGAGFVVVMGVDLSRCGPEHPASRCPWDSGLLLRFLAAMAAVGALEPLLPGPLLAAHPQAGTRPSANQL
From the text: as §2

human Notch4-NRR protein = biological target: T7, human Notch4-NRR protein (human, UniProt Q99466 1172-1445, limits assumed); experiment: as above
T7 construct: domain: NRR; also called hNotch4 NRR
T7 sequence (looked up): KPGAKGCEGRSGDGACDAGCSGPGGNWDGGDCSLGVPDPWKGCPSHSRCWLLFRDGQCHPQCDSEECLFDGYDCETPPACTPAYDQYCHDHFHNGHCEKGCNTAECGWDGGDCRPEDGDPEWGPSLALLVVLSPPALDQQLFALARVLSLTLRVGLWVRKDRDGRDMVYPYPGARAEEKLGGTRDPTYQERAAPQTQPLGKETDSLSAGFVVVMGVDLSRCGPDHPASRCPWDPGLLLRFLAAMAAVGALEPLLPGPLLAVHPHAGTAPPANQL
From the text: as §2

Mouse Notch2-NRR-FLAG = biological target: T8, Mouse Notch2-NRR-FLAG (mouse, UniProt O35516 1306-1678); experiment: SPR (BIAcore-3000), IgG captured by anti-human IgG, Notch2 NRR injected; mouse Notch2 NRR antigen
T8 construct: Whole tagged antigen construct; also called murine Notch2 NRR; mNotch2 NRR
T8 sequence: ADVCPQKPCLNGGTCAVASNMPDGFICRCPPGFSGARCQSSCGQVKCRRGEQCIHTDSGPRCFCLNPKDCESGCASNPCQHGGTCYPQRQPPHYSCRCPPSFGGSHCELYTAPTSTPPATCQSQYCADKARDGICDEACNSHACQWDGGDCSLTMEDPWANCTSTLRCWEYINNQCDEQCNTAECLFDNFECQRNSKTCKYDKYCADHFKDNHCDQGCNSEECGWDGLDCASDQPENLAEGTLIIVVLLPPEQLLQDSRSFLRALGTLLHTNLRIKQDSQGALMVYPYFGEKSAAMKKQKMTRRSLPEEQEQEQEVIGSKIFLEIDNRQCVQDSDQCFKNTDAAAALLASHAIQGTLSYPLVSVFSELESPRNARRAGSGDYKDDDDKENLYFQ
Procedure: as §1

Kd [1]: 5 nM
EC50 (read off the curve) [2]: ~0.03 µg/mL
binding result (mouse Notch1 NRR protein): no binding (tested: 10 ug/ml)
binding result (human Notch3-NRR protein): no binding (tested: 10 ug/ml)
binding result (human Notch1 NRR protein): no binding (tested: 10 ug/ml)
binding result (mouse Notch3-NRR protein): no binding (tested: 10 ug/ml)
binding result (mouse Notch4-NRR protein): no binding (tested: 10 ug/ml)
binding result (human Notch4-NRR protein): no binding (tested: 10 ug/ml)
Kd (Mouse Notch2-NRR-FLAG): 5 nM
B1: Antibody D-3 (antibody, V domains shown)
VH: EVQLVESGGGLVQPGGSLRLSCAASGYTFSSYGMSWVRQAPGKGLEWVSYIYPYSGATYYADSVKGRFTISADTSKNTAYLQMNSLRAEDTAVYYCARHSGYYRISSAMDVWGQGTLVTVSA
VL: DIQMTQSPSSLSASVGDRVTITCRASQNIKRFLAWYQQKPGKAPKLLIYGASTRESGVPSRFSGSGSGTDFTLTISSLQPEDFATYYCQQYYRSPHTFGQGTKVEIKR
notes: also called anti-NRR2; α-NRR2
